For three substances, response results are on record in publication PMC9969015.

The target of the experiment is integrins on T cells. The experiment in a line: flow cytometry on cells. Particulars: read off a plot. Background: A flow cytometer gives signals particle by particle.

On to “S-RBD protein with C-terminal human Fc-tag (receptor-binding domain of SARS-CoV-2 S protein) D405E”, for which the response by setting is: (parent: est. 21) 5 MFI; (parent: est. 36) 6.5 MFI.

In the case of “S-RBD protein with C-terminal human Fc-tag (receptor-binding domain of SARS-CoV-2 S protein) D442E”, the response turned out to be 8 MFI (parent: est. 21) and 9 MFI (parent: est. 36).

With “S-RBD protein with C-terminal human Fc-tag (receptor-binding domain of SARS-CoV-2 S protein) D586E”, the response reads like this: (parent: est. 21) 2 MFI; (parent: est. 36) 2.5 MFI.
